Literature values in PMC5951583.
Where two headings read alike, the source gives them in different places.

Columns and labels:
[1] = target: Synaptotagmin-2 (Rattus norvegicus) (UniProt P29101); test: SPR
[2] = target: Syt-II (Rattus norvegicus) (UniProt P29101)
[3] = target: Synaptotagmin-2 (Rattus norvegicus) (UniProt P29101)
[4] = target: Syt-II luminal domain (Rattus norvegicus) (UniProt P29101); test: ITC
[5] = target: Synaptotagmin-2 (Rattus norvegicus) (UniProt P29101); test: ITC
[6] = target: Synaptotagmin-2 (Rattus norvegicus) (UniProt P29101); remark: listed apart in the source

BoNT/B (from UniProt P10844)
Kd [1]: 0.6 nM
Kd [2]: 7 nM
Kd [3]: 0.23 nM

BoNT/B HC (HCB) HC (from UniProt P10844)
Kd [4]: 34 nM

BoNT/B HC HC (from UniProt P10844)
Kd [5]: 34 nM
Kd [6]: 7 nM
